Source: the nanobody polyreactivity screen of Harvey et al. (2022)

Assay: yeast display, Sf9 membrane polyspecificity reagent, FACS + sequencing; frameworks hold sequencing errors
In short: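 Genes from sorted yeast were amplified by colony PCR, read by MiSeq 2 × 250 sequencing and filtered on CDR length. These cells carried a synthetic nanobody library in Saccharomyces cerevisiae BJ5465 and were sorted by FACS into low and high (top ~1%) gates on anti-HA and streptavidin fluorescence. Polyreactivity is labelled according to the gate of origin.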

Row | Sequence | polyreactivity (PSR sort gate)
1 | QVQLVESGGGLVQAGGSLRISCAASGSTFDRNAMGWYRQPPGKERELVAAISSSGGRTYYADSVKGRFTISRDNAKNTVYLQMNSLKPEDTPVYYCAAAFSLGMYWGKGTQVTVSS | high polyreactivity
2 | QVQLVESGGGLVQAGGSLRISCAASGSTFKGYAMGWYRQSPGKERELVAAISRSGTRTYYADSVKVRFTISRDTAKNTVYLQMNSLNPEDTAVYSCNKDTGYIAHDNENGRDYWGQGTQVTVSS | low polyreactivity
3 | QVQLVESGGGLVQAGGSLRISCAASGSTFKRNVMGWYRQAPGKERELVAAISRTDGRTYYADSVKGRFTISRDNAKNSVYLEMNSLKPEDTAVYYCAATTGHRTYRYYYWGHGTQVTVSS | high polyreactivity
4 | QVQLVESGGGLVQAGGSLRISCAASGSTFRGYAMGGYRQAPGKERDLVAAMSSNGDRTFYADSVKGRFTISRDNAMNTVYLLMNSLKAEDTAVYYCNAVYSGSWQLYGYWGQGSQVTVSS | high polyreactivity
5 | QVQLVESGGGLVQAGGSLRISCAASGSTFRRYAMGWYRQAPGKEREFVAVITSSGVITYYADSVKGRFTISRDNAKNTVYLQMNSLKPEDTAVYYCATDARSMDYWGQGTQVTVSS | low polyreactivity
6 | QVQLVESGGGLVQAGGSLRISCAASGSTFSYYAMGWYRQAPGKERELVAAISSRGGSTYYADSVKGRFTISRDNAKNTVYLQMNSLKPEDTAVYYCAAVRNRHGYDYWGQGTQVTVSS | high polyreactivity
7 | QVQLVESGGGLVQAGGSLRISCAASGSTFYHNVMGWYRPAPGKERELVASIDTGDSTNYADSVKGRFTISLDNAKNTVYLQMNSLKPEDTAVYYCNADSYPALNKRGYDYWGQGTQVTVSA | low polyreactivity
8 | QVQLVESGGGLVQAGGSLRISCAASGSTIQQYAMGRYRQAPGKEREFVAAISWRGGRTYYADSVKGRFTISRDNAKNTVYLQMNSLKPEDTAVYYCAVDPSIYRLSAYYYDYWGQGTQVTVSS | low polyreactivity
9 | QVQLVESGGGLVQAGGSLRISCAASGYTFPFYTMGWYRQAPGKERELVAAINSGGSTYYADSVKGRFTISRDNAKNTVYLQMNRLKPEDTAVYYCAVEGGFRVRYQAQYRFYYWGQGTEVTVSS | high polyreactivity
10 | QVQLVESGGGLVQAGGSLRISCAASVSIFPGYAMGWSRQAPGKERELVATITWSGGSTYYADSVKGRFTISRDNAKNTVYLQMNSLKPEDTAVYYCNADSNWYYQWNYYCLYDYWGQGTQVTVSS | low polyreactivity
11 | QVQLVESGGGLVQAGGSLRISCAAYGSTIVTNAMGWYRQAPVKERELVAASTSGAGTYYADSVKGRFTISRDNAKNTVYLQMNCLKTEDTAVYYCAARRYYSSGRYRFGYWGQGSQVTVSS | high polyreactivity
12 | QVQLVESGGGLVQAGGSLRISCADSGSIFSLYAMGWYRPAAGKERELVAAIRRGGSTYYADSVKGRFTISRDNAKNTVYLQMNSLIPEDTAVYYCAADAYSGYSDYYWGQGTHVTVSS | low polyreactivity
13 | QVQLVESGGGLVQAGGSLRISCADSGSIFTYNAMGWYRQAPGKERELVAAITSSSGSSTYADSVKGRFTISRDNAKYTVYLQMNSLKPEDTAVYYCAAPILSFPSPYVQYDYWGQGTQVTVSS | low polyreactivity
14 | QVQLVESGGGLVQAGGSLRISCAPSGIIFYQNTMGWYRQAPGKERELVATITKRGGSSYYADSVKGRFTISRDNAKNTVYLQMNSLKPEDTAVYYCNAAKYAASYIGYGYWGQGTQVTVSS | high polyreactivity
15 | QVQLVESGGGLVQAGGSLRISCAPSGRIFNINEMGWYRPARGKEREWVARITTGGRTNYADSVKGRFTISRDNAKNTFYLQMNSLKPADTAVYYCAARTYGQLGDYWGQGTQVTVSS | high polyreactivity
16 | QVQLVESGGGLVQAGGSLRISCASSGFTFSQYAMGWYRQAPGKERELVAAISSSGGRTYYADSVKGRFTISRDNAKNTVYLQMKSLKPEDTAFFYCAAPGAQGLGLRGAGLDYWGQGTQVTVSS | high polyreactivity
17 | QVQLVESGGGLVQAGGSLRISCDASGSTFVANAMRSYREAPGKERELLAAISRSGGRTYYADSVKGRFTISRDNAKYTVYFQMNSLKPEDTAVYYCAADGYRSPVYANWGMGYWGQGSQVTVSS | high polyreactivity
18 | QVQLVESGGGLVQAGGSLRISCDASGYIFGWNSMGWYRQAPGKERELVAAISSSGGNTYYADSVKGRFTISRDNAKNTVYLQMNSLKPEDTAVYYCARSYPYRYDYWGQGTQVTVSS | low polyreactivity
19 | QVQLVESGGGLVQAGGSLRISSAASGRIFTPYVMGWYRQAPGKERELVADINLSGDSTSYADSVKGRFTITRDNAKNTVYLQMNSLKPEDTAVYYCNADSYIYVGNDQYDYWGQGTQVTVSS | low polyreactivity
20 | QVQLVESGGGLVQAGGSLRISSAASGRTFFTNAKGWYRQAPGKERELVAVITYRGDSTYADSVKGRFTISRDNAKNTVYLQMNSLKPEDTAVYYCNAEFRGGRWFTYDYWGHGTQVTVSS | low polyreactivity
21 | QVQLVESGGGLVQAGGSLRISSAAYGRIIYGYAMGWYRQAPGKERELVAAITWRGTSTYYADSVKGRFTISRDNAKNTVYLQMNCLKPEDTAVYYCNAVRSLAYWGQGTQVTVSS | high polyreactivity
22 | QVQLVESGGGLVQAGGSLRITCAASGSIFGTNAMGWYRQAPGKERELVAAIDGGSTTYYADCVKGRFTISRDNAKNTVYLQMNSLKPEDTAVYYCAADGTRYLNYEGYAGYEYWGQGTQETVSS | low polyreactivity

Row | Sequence | polyreactivity (PSR sort gate)
23 | QVQLVESGGGLVQAGGSLRITCAASGSIFYSNVMGWSRPAPGKERELVARITDAGSTNYADSVKGRFTISRDYAKNTVYLQMYSLKPEDTAVYYCIARLVIYTYDYWGQGTQVTVSS | low polyreactivity
24 | QVQLVESGGGLVQAGGSLRITCAASGSNFTYNAMGRYREAPGKERELVAAIDWDGDTTYYADSVKGRFTISRDNAKNTVYLQMNSLKPEDTAVYYCAAEFYSLGKAIYEYWGQGTQVTLSS | high polyreactivity
25 | QVQLVESGGGLVQAGGSLRLAVLPPDLPSTLNDMGWYRQAPGKERELVAAITRGGSTNYADSLKGRFTISRDNAKNTVYLQMNSLKPEDSAVYYCAAPYAGWGDGGDYWGQGTQVTVSS | low polyreactivity
26 | QVQLVESGGGLVQAGGSLRLAVLPPDLPSTLNDMGWYRQAPGKERELVAAITRGGSTNYADSVKGRFTISRDNAKNTVYLQMNSLKPEDTAVYYCAAPYAGWRDGGDYWGQGTQVTVSS | low polyreactivity
27 | QVQLVESGGGLVQAGGSLRLCCAASGIIFYSYAMGWYRQAPGKEREFVAAITNSDGSTYYADSVKGRFTISRDNAKNTVYLQMNSVKPEDTAVYMFYWGQGTQVTVSS | low polyreactivity
28 | QVQLVESGGGLVQAGGSLRLCCAASGRIFDYNAMGLYRQAPGKERELVAAINSGGSTYADSVKGRFTISRDNAKNTVYLQMNSLKPEDTAVYYCANSLGQTDWEYDSWGQGTQVTVSS | low polyreactivity
29 | QVQLVESGGGLVQAGGSLRLCCAASGSIFLLNAMGWYRQAPGKERELVAAISWGGGSTYYADSVKGRFTISRDNAKNTVYLQMNSLKPEDTAVYYCNASVTLGLEVDYSGQGTQVTVSS | low polyreactivity
30 | QVQLVESGGGLVQAGGSLRLICAAAGRIVSYYTMGWYRQAPGKERELVAAISSGGSTNYADSVKGRFTISRDNAKNTVYLQMNSLKPEDTAVYYCAVRCGRRNYDRPAFGYWGQGTQVTVSS | high polyreactivity
31 | QVQLVESGGGLVQAGGSLRLICAASGFIFGHYAMGWYRQAPGNERELVAAISTGGDGTYYADSVKGRFTISRDNAKNTVYLQMNSLKPEDTAVYYCAVRHRASGILYYYWGQATQVTVSS | low polyreactivity
32 | QVQLVESGGGLVQAGGSLRLICAASGFIFGNYAMGWYRQAPGKERELVATITWRGGSTYYADSVKGRFTISRDNAKNTVYLQMNSLKPEDTAVYYCARPYASYRSFYYYGYWGQGTQVTVSS | high polyreactivity
33 | QVQLVESGGGLVQAGGSLRLICAASGFIFGSYAMGWYRQAPAKERELVAAINYDGGSTYYADSVKGRFTISRDNAKNTVYLQMNSMKPEDTAVYYCAADLYYTHMDYWGQGTQVTVSS | low polyreactivity
34 | QVQLVESGGGLVQAGGSLRLICAASGFIFIGYAMGWYRQARGKERELVAAISWRGGTYYADSVKGRFTISRDNAKNSVYLQMNSLKPEDTAVYYCAARTRNAVRSGSGKYDYCGQGTQVTVSS | low polyreactivity
35 | QVQLVESGGGLVQAGGSLRLICAASGFIFKWNAMGWYRQAPGKERELVAAITSGGGTYYADSVKGRFTISRDNAKNTVYLQMNSLKPEDTAVYYCAALGRYWPARRFDYWGQGTQVTVSS | high polyreactivity
36 | QVQLVESGGGLVQAGGSLRLICAASGFIFSAYAMGWYRQAPGKERELVAAISYSGGTTYYADSVKGRFTISRDNAKNTVYLQMNSLKPEDTAVYYCAAGVGYWGQGTQVTVSS | high polyreactivity
37 | QVQLVESGGGLVQAGGSLRLICAASGFIFSTYAMGWYRQAPGKERELVAAISWSGGRTNYADSVKGRFTISRDNAKNTVYLQMNSLKPEDTAVYYCARYGHSGRQYKYDYWGQGTQVTVSS | high polyreactivity
38 | QVQLVESGGGLVQAGGSLRLICAASGFIFWDNAMGWYRQAPGKERELVAAISKSGTRTYYADSVKGRFTISRDNEKNTVYLQMNSLKPEDTAVYYCAAEGSGYEYYYWGQGTQVTVSS | high polyreactivity
39 | QVQLVESGGGLVQAGGSLRLICAASGFSFRYYDMGWYRQAPGKERELVAAISRSGGRTYYADSVKGRFTISRDNAKNSVYLQMNSLNPEDTAVYYCNAVYNVVLSRVIYARGYWGQGTQVTVSS | high polyreactivity
40 | QVQLVESGGGLVQAGGSLRLICAASGFTFASYGMGWYRQARGKERELVAAISWSGGRTYYADSVKGRFTISRDNATNTVYLQMNSLKPEDSAVYYSNAYWNPASKYDYWGQGTQVTVSS | high polyreactivity
41 | QVQLVESGGGLVQAGGSLRLICAASGFTFAYYAMGWYRQATGKERELVAAISSGGGTYYADSVKGRFTISRDNAKNTVYLQMNSLKPEDTAVYYCNARYYFVFGRYNYWGQGTQVTVSS | high polyreactivity
42 | QVQLVESGGGLVQAGGSLRLICAASGFTFGYNDMGWYRQAPGKERELVATITRSAGRTYYADSVKGRFTISRDNAKNTVYLQMNSLKPEDTAVYYCASSYWDTEPGYREYDYWGQGTQVTVSS | low polyreactivity
43 | QVQLVESGGGLVQAGGSLRLICAASGFTFHSYAMGWYRQAPGKERELVAAITTDGSTYYADSVKGRFTISRDNAKNTVYLQMTSLKPEDTAVYYCAAGKAYWYARKPYARYYYWGQGTQVTVSS | high polyreactivity
